Measurements: patent publication US20250170182A1

Key:
[1] = biological target: human wild type FLT3 (human) (UniProt P36888); test: cell-based or functional assay
[2] = biological target: human wild type CD123 (human) (UniProt P26951); test: cell-based or functional assay
Sequence of UniProt P26951 (P26951 19-378 limits assumed): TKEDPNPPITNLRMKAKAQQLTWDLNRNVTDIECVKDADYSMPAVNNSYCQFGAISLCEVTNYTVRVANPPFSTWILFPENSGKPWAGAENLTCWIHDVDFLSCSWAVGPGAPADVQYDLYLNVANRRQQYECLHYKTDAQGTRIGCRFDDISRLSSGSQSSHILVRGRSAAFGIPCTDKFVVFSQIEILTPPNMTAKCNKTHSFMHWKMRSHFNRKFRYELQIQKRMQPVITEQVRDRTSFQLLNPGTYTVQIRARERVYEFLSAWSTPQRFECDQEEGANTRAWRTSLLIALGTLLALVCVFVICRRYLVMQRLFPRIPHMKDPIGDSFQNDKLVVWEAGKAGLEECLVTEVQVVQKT

4G8-CAR (IgG4 hinge, CD28 TM, CD28z, CD3z) targeting FLT3 domain 4
surviving K562 target cells at E:T=10 relative to E:T=0 [1]: < 2%

CSL362-CAR (CD8a hinge, CD28 TM, CD28z, CD3z) targeting CD123 N-terminal domain
surviving K562 target cells at E:T=10 relative to E:T=0 [2]: < 2%
